In the assay the test system is 575 putative partners (preys) of 22 WT SH3-containing proteins. Kind of assay: DHFR-PCA on solid medium, WT and SH3-deleted baits (Fig. 1B). The following applies: for medrep (log2 median colony size normalized to plate background, PCA score): label = prey; for SH3-dependent PPIs: number of PPIs, SH3 domain in its own protein, DHFR-PCA, Fig2D,S2F. The arrangement: key to Score: 0: SH3-independent; 1: SH3-dependent PPIs; 2: SH3-inhibited PPIs. It counts as cell-based, Saccharomyces cerevisiae. Summed up: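 In S. cerevisiae, 22 SH3-containing baits fused genomically to DHFR F[1,2], either WT or with each SH3 replaced via CRISPR by a poly-Gly/Ser linker, screened against 575 DHFR F[3] preys plus 40 negative controls in 1536 arrays, preys duplicated at randomized positions.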

These results are taken from PMC7954794, “Protein context shapes the specificity of SH3 domain-mediated interactions in vivo” (Nature Communications, 2021).

B1: YBL039C (protein, UniProt P28274 1-579, looked up)
CTP synthase 1: MKYVVVSGGVISGIGKGVLASSTGMLMKTLGLKVTSIKIDPYMNIDAGTMSPLEHGECFVLDDGGETDLDLGNYERYLGVTLTKDHNITTGKIYSHVIAKERKGDYLGKTVQIVPHLTNAIQDWIERVAKIPVDDTGMEPDVCIIELGGTVGDIESAPFVEALRQFQFKVGKENFALIHVSLVPVIHGEQKTKPTQAAIKGLRSLGLVPDMIACRCSETLDKPTIDKIAMFCHVGPEQVVNVHDVNSTYHVPLLLLEQKMIDYLHARLKLDEISLTEEEKQRGLELLSKWKATTGNFDESMETVKIALVGKYTNLKDSYLSVIKALEHSSMKCRRKLDIKWVEATDLEPEAQESNKTKFHEAWNMVSTADGILIPGGFGVRGTEGMVLAARWARENHIPFLGVCLGLQIATIEFTRSVLGRKDSHSAEFYPDIDEKNHVVVFMPEIDKETMGGSMRLGLRPTFFQNETEWSQIKKLYGDVSEVHERHRHRYEINPKMVDELENNGLIFVGKDDTGKRCEILELKNHPYYIATQYHPEYTSKVLDPSKPFLGLVAASAGILQDVIEGKYDLEAGENKFNF
Regarding B1, the “medrep (log2 median colony size normalized to plate background, PCA score)” value worked out at 2.2515 (bait SLA1-2, DHFR-PCA, Replicates 4 (2 for YCR009C, YDR388W)) and 2.2515 (bait SLA1-3, DHFR-PCA, Replicates 4 (2 for YCR009C, YDR388W, YIL033C)). Besides, the Score reads like this: (bait SLA1-2, label = prey) 1; (bait SLA1-3, label = prey) 0. Also, the “Ratio (SH3-deleted/WT medrep)” value (bait SLA1-2, label = prey, only significant differences shown, PPIs completely lost have a ratio of 0.1, gained PPIs 2.5) was found to be 0.1.

B2: CYK3 (protein, UniProt Q07533 1-885, looked up)
Cytokinesis protein 3: MATNLTSLKPPFKVKARYGWSGQTKGDLGFLEGDIMEVTRIAGSWFYGKLLRNKKCSGYFPHNFVILLEERLNSSTENGRQPSKIVESFEKSNKVVIPPVPSRYSDERPRPKKKLSSSMPNSPKKPVDSLTKARKAKSKEMVNEKNIYNTQSSRHHNNSAPNLPLASHSKPQVRNFEESMNNPLPPLPPLPDLDNMRKTDKRAPKKSYSANDLHMARSSREYNYYKDNQKFYDGFIPEKRYSLEEDSISSGLFSNSQYLNDSACSSENSFALMSDFSATSAGSFARHKYAQSFSDSLQRSQNANGCSTKINDSQEFGDSNASSRNGKMGDILRKIIIPKRNTNIYSSSVSSPKSPKAYPKLPDIQNLNLSATPDEARDWIAVKCHLNRARTLTKYDKHPRYMRALEENRDLILHPQDSIYNGLNTNEVKGNTKPGLVDVELAELNIEYIDKMTWKRCIRDGTMTLDSWAQTTFSARYSTVLEKLRGIYIFCTEMFALTDDNGTSDFSAEPQNLEKILYRKHCTPYELTWLFKKLANSLGITCEIVIGFLKTPSAINWEFKYNHCWLRILVNKEWRFIDVILGNVTNPIHEFVNNRKIKKAENSYFLMAPLEMIYTHIPPREFEQHIVPSIDQLSALYLPLVFPSFFKNELKLYKFSTALSFLEDSEIYECSLEIPNDVEVFASVVIPTDNEEASSAYRNMELALTQIKKQKAESGRRIALIKAVLPPNVNKGSLYIHSGVRGTQTSIANIHPLSMMVPLTHKGSNMKYEFVIKIPSESIQKIELYIVEPQSRYLFVGNEYSFEVIQSPSDGIVYSSDEGPNQNRKQPMAIKSPSGRVHELVKSDPHFPYGTWKGSIKIKEPGVWSALVIADSGIGWSVFAEWLCV
Turning to B2, the “SH3-dependent PPIs” value is 0.

B3: BBC1: yeast SH3-containing protein; SH3-deleted or knockout strain (protein, UniProt P47068 1-1157, looked up)
Myosin tail …: MSEPEVPFKVVAQFPYKSDYEDDLNFEKDQEIIVTSVEDAEWYFGEYQDSNGDVIEGIFPKSFVAVQGSEVGKEAESSPNTGSTEQRTIQPEVEQKDLPEPISPETKKETLSGPVPVPAATVPVPAATVPVPAATAVSAQVQHDSSSGNGERKVPMDSPKLKARLSMFNQDITEQVPLPKSTHLDLENIPVKKTIVADAPKYYVPPGIPTNDTSNLERKKSLKENEKKIVPEPINRAQVESGRIETENDQLKKDLPQMSLKERIALLQEQQRLQAAREEELLRKKAKLEQEHERSAVNKNEPYTETEEAEENEKTEPKPEFTPETEHNEEPQMELLAHKEITKTSREADEGTNDIEKEQFLDEYTKENQKVEESQADEARGENVAEESEIGYGHEDREGDNDEEKEEEDSEENRRAALRERMAKLSGASRFGAPVGFNPFGMASGVGNKPSEEPKKKQHKEKEEEEPEQLQELPRAIPVMPFVDPSSNPFFRKSNLSEKNQPTETKTLDPHATTEHEQKQEHGTHAYHNLAAVDNAHPEYSDHDSDEDTDDHEFEDANDGLRKHSMVEQAFQIGNNESENVNSGEKIYPQEPPISHRTAEVSHDIENSSQNTTGNVLPVSSPQTRVARNGSINSLTKSISGENRRKSINEYHDTVSTNSSALTETAQDISMAAPAAPVLSKVSHPEDKVPPHPVPSAPSAPPVPSAPSVPSAPPVPPAPPALSAPSVPPVPPVPPVSSAPPALSAPSIPPVPPTPPAPPAPPAPLALPKHNEVEEHVKSSAPLPPVSEEYHPMPNTAPPLPRAPPVPPATFEFDSEPTATHSHTAPSPPPHQNVTASTPSMMSTQQRVPTSVLSGAEKESRTLPPHVPSLTNRPVDSFHESDTTPKVASIRRSTTHDVGEISNNVKIEFNAQERWWINKSAPPAISNLKLNFLMEIDDHFISKRLHQKWVVRDFYFLFENYSQLRFSLTFNSTSPEKTVTTLQERFPSPVETQSARILDEYAQRFNAKVVEKSHSLINSHIGAKNFVSQIVSEFKDEVIQPIGARTFGATILSYKPEEGIEQLMKSLQKIKPGDILVIRKAKFEAHKKIGKNEIINVGMDSAAPYSSVVTDYDFTKNKFRVIENHEGKIIQNSYKLSHMKSGKLKVFRIVARGYVGW
On to B3, for which the “SH3-dependent PPIs” value was found to be 19.

B4: FUS1 (protein, UniProt P11710 1-512, looked up)
Nuclear fusion protein FUS1: MVATIMQTTTTVLTTVAAMSTTLASNYISSQASSSTSVTTVTTIATSIRSTPSNLLFSNVAAQPKSSSASTIGLSIGLPIGIFCFGLLILLCYFYLKRNSVSISNPPMSATIPREEEYCRRTNWFSRLFWQSKCEDQNSYSNRDIEKYNDTQWTSGDNMSSKIQYKISKPIIPQHILTPKKTVKNPYAWSGKNISLDPKVNEMEEEKVVDAFLYTKPPNIVHIESSMPSYNDLPSQKTVSSKKTALKTSEKWSYESPLSRWFLRGSTYFKDYGLSKTSLKTPTGAPQLKQMKMLSRISKGYFNESDIMPDERSPILEYNNTPLDANDSVNNLGNTTPDSQITSYRNNNIDLITARPHSVIYGTTAQQTLETNFNDHHDCNKSTEKHELIIPTPSKPLKKRKKRRQSKMYQHLQHLSRSKPLPLTPNSKYNGEASVQLGKTYTVIQDYEPRLTDEIRISLGEKVKILATHTDGWCLVEKCNTQKGSIHVSVDDKRYLNEDRGIVPGDCLQEYD
Regarding B4, the “SH3-dependent PPIs” value is recorded as 0.

B5: LSB1 (protein, UniProt P53281 2-241, looked up)
LAS seventeen-binding protein …: SASLVNRSLKNIRNELEFLKESNVISGDIFELINSKLPEKWDGNQRSPQNADTEEYVEALYDFEAQQDGDLSLKTGDKIQVLEKISPDWYRGKSNNKIGIFPANYVKPAFTRSASPKSAEAASSSTVSRPSVPPPSYEPAASQYPSQQVSAPYAPPAGYMQAPPPQQQQAPLPYPPPFTNYYQQPQQQYAPPSQQAPVEAQPQQSSGASSAFKSFGSKLGNAAIFGAGSAIGSDIVNSIF
With B5, the “SH3-dependent PPIs” value turned out to be 8.

B6: HSE1 (protein, UniProt P38753 2-452, looked up)
Class E vacuolar …: SSSAIKIRNALLKATDPKLRSDNWQYILDVCDLVKEDPEDNGQEVMSLIEKRLEQQDANVILRTLSLTVSLAENCGSRLRQEISSKNFTSLLYALIESHSVHITLKKAVTDVVKQLSDSFKDDPSLRAMGDLYDKIKRKAPYLVQPNVPEKHNMSTQADNSDDEELQKALKMSLFEYEKQKKLQEQEKESAEVLPQQQQQHQQQNQAPAHKIPAQTVVRRVRALYDLTTNEPDELSFRKGDVITVLEQVYRDWWKGALRGNMGIFPLNYVTPIVEPSKEEIEKEKNKEAIVFSQKTTIDQLHNSLNAASKTGNSNEVLQDPHIGDMYGSVTPLRPQVTRMLGKYAKEKEDMLSLRQVLANAERSYNQLMDRAANAHISPPVPGPALYAGMTHANNTPVMPPQRQSYQSNEYSPYPSNLPIQHPTNSANNTPQYGYDLGYSVVSQPPPGYEQ
Regarding B6, the “SH3-dependent PPIs” value is given as 1.

B7: LSB3 (protein)
chain: MGINNPIPRSLKSETKKAAKILASFVKPNQVFGADQVIPPDVLKRAKGLAIITILKAGFLFSGRAGSGVIVARLKDGTWSAPSAIAMAGAGAGGMVGIELTDFVFILNTQDAVKSFSEFGTITLGGNVSVSAGPLGRSAEAAASASAGGVAAVFAYSKSKGLFAGVSVEGSAIIERREANRKFYGDNCTAKMILSGRIRPPPAVDPLFRVLESRAFNYRPSNGGRGSFDDDEDDYYDDDDYYNDIPSSFSSTDASSTRPNTRSTRRRAQSGSRYTFDDDDDDDDYGTGYSRNSRLAPTNSGGSGGKLDDPSGASSYYASHRRSGTAQSRARSSRNRWADDEYDDYDDDYESGYRRGNGRDRTKDREVDDLSNRFSKSRISSASTPQTSQGRFTAPTSPSTSSPKAVALYSFAGEESGDLPFRKGDVITILKKSDSQNDWWTGRVNGREGIFPANYVELV
modifications: left off: DHFR F[3], C-terminal, kept
In the case of B7, the “SH3-dependent PPIs” value is recorded as 19.

B8: HOF1 (protein, UniProt Q05080 1-669, looked up)
Cytokinesis protein 2: MSYSYEACFWDPNDNGVNILLGHISQGIRSCDSMILFFKQRSELEKDYARRLGAITGKLDKDIGTNMDYGKLNETFNVVLSVEKARAQSHSKQSEILFRQIYTDTKAFAANLQARYTTLSGKIERLRMDKFNKKKGCEVLQKKLQDAQIRFRDLQLNENNMIGAKRVEHNKRELLKWESNSQEYKVQLDVLKQEYKASQKFWIHEWAQLSCELQEMENARISFLQSKLQQFATSSMETYILEQTKMDMLTNHLNSFTAADEISTFSKENGTGRLKHKTSKGDMNSSANWAQMSSISTTSKKTESYMDNIRKLSSQLKETENKRKLASIDKYEKPLPSPEVTMATQFRNSTPVIRNETKVVANPTLSLRSSPVQLQSNVDDSVLRQKPDKPRPIVGEEQLKPDEDSKNPDEKGLMVHKRNQSLSSPSESSSSNPTDFSHIKKRQSMESMTTSVSSMANSIDDSQRFAKSWNSSNRKRKSMSHLQVPSSASSRSDDGGRTPNSAHNLNEDDYNTRRDTSTSTILFKPPVAVRGTSRGHTHRQSMIMQDSSNPIEDALYEMERIQSSSKPGTKTGNIMDERGVVRDRGITVTLPIVTSEGFPVIEYAKAMYPLIGNEAPGLANFHKGDYLLITEIVNKDWYKGEVYDNDRIDRNHRIGLIPYNFIQLLHQGL
Consider B8, for which the “SH3-dependent PPIs” value is recorded as 4.
